Positions count from the first letter of the chain named. In names and notes the source's numbering stands.
Tests used:
[1] = target: C. reinhardtii Bld12p N-terminal domain fragment (crN, residues 1-159) (C. reinhardtii); assay: ITC; dilution: crN at high concentration (1.0-1.6 mM) injected stepwise into buffer; 7°C; 12 mM HEPES pH 7, 100 mM NaCl, 0.7 mM βMe; dimer to monomers
[2] = target: C. reinhardtii Bld12p crN-6HR fragment with F145E (crN-6HR[F145E]) (C. reinhardtii); assay: AUC; sedimentation velocity, 20°C, 150 μM protein; 20 mM Tris-HCl pH 7.5, 150 mM NaCl, 2 mM TCEP, 1% glycerol
[3] = target: C. reinhardtii Bld12p crN-6HR fragment with F145E (crN-6HR[F145E]) (C. reinhardtii); assay: dilution series monitored by CD at 222 nm; 20°C, samples reduced with DTT; fit to a two-state association (monomer-dimer) model; dimer to monomers
[4] = target: C. reinhardtii Bld12p crN-6HR fragment with F145E (crN-6HR[F145E]) (C. reinhardtii); assay: SEC-MALS; S-200 analytical size exclusion column in line with light scattering and refractive index detectors; PBS with 1 mM DTT; samples of 2-4 mg/ml
[5] = target: the molecule itself; assay: as above
[6] = target: the molecule itself; assay: dilution series monitored by CD at 222 nm; 20°C, samples reduced with DTT; fit to a two-state association (monomer-dimer) model; dimer to monomers
[7] = target: the molecule itself; assay: crystal structure; X-ray crystallography; sitting drop vapor diffusion
[8] = target: the molecule itself; assay: AUC; sedimentation velocity, 20°C, 300 μM protein; 20 mM Tris-HCl pH 7.5, 150 mM NaCl, 2 mM TCEP, 1% glycerol
[9] = target: the molecule itself; assay: ITC; dilution: 1.6 mM ceN injected stepwise into buffer; 7°C; 20 mM sodium phosphate pH 7, 100 mM NaCl, 1 mM DTT; dimer to monomers
[10] = target: the molecule itself; assay: AUC; sedimentation velocity, 20°C, 200 μM protein; 20 mM Tris-HCl pH 7.5, 150 mM NaCl, 2 mM TCEP, 1% glycerol

C. reinhardtii Bld12p N-terminal domain fragment (crN, residues 1-159) (domain or fragment)
Kd [1]: 60 µM

C. reinhardtii Bld12p crN-6HR fragment with F145E (crN-6HR[F145E]) (domain or fragment)
stoichiometry N [2]: 2
Kd [3]: 0.5 µM
stoichiometry N [4]: 2

B1: C. elegans SAS-6 coiled-coil domain fragment (ceCC, residues 181-408) (domain or fragment, UniProt O62479 181-408, looked up)
chain: SSQAVKLSTFYKSADELASLRQKCGDLEKQVEKLSGVKEEFEEMSEKFKELEDEVELVKEERENIRLLVEDKEDEVADLKQDTESLQKQLEENQEELEIVGNMLREEQGKVDQLQKRNVAHQKEIGKLRAELGTAQRNLEKADQLLKRNSQQQNQQSLDMRKLGELEADLKEKDSMVESLTETIGILRKELENEKLKAAENMDSFEKLSMENENLKEKIAHYRAQRFS
notes: SAS-6, C. elegans, Uniprot ID O62479, coiled coil, residues 181-408; Cloned in pET15b; His6-tag removed by thrombin; Monomer mass 27.4 kDa as printed; also called SAS-6 ceCC; source: recombinant, bacteria; not shown: His6, N-terminal, cleaved
stoichiometry N [5]: 2
Kd [6]: 0.9 ± 0.1 µM

B2: C. elegans SAS-6 N-terminal domain fragment with S123E (ceN[S123E]) (domain or fragment, UniProt O62479 1-168, looked up)
chain: MTSKIALFDQTLIASLLQPLSLNQPDFKAYKTKVKLKISEQRNETSGEKELKFEISRSDDFEFLFSETLNNEKYQILARDHDLTVDFDAFPKVIIQHLLCKNIVKNLEEDGEVDARKKAGYHEIADPGKPTEINIILDAEKNFCSFELFSKTPISKGKIFSIKLHAVR
notes: SAS-6, C. elegans, Uniprot ID O62479, N-terminal domain, residues 1-168, Ser123 mutated to glutamate; The crystallised variant; Two molecules in the asymmetric unit; also called ceN variant; ceN-dimer; source: recombinant, purified, crystallised; preparation of the variant not described
binding result [7]: binds

B3: C. elegans SAS-6 N-terminal domain fragment (ceN, residues 1-168) (domain or fragment, UniProt O62479 1-168, looked up)
chain: B2 chain with E123S
notes: SAS-6, C. elegans, Uniprot ID O62479, N-terminal domain, residues 1-168; Cloned in a modified pET15b vector; His6-tag removed by thrombin; source: E. coli BL21 gold (DE3), purified (Ni-NTA, size exclusion chromatography); not shown: His6, N-terminal, cleaved
stoichiometry N [8]: 2
Kd [9]: ~110 µM

B4: C. elegans SAS-6 N terminus plus coiled coil fragment (ceN-CC, residues 1-414) (domain or fragment, UniProt O62479 1-414, looked up)
chain: MTSKIALFDQTLIASLLQPLSLNQPDFKAYKTKVKLKISEQRNETSGEKELKFEISRSDDFEFLFSETLNNEKYQILARDHDLTVDFDAFPKVIIQHLLCKNIVKNLEEDGEVDARKKAGYHSIADPGKPTEINIILDAEKNFCSFELFSKTPISKGKIFSIKLHAVRGDHLISHLLKICSSQAVKLSTFYKSADELASLRQKCGDLEKQVEKLSGVKEEFEEMSEKFKELEDEVELVKEERENIRLLVEDKEDEVADLKQDTESLQKQLEENQEELEIVGNMLREEQGKVDQLQKRNVAHQKEIGKLRAELGTAQRNLEKADQLLKRNSQQQNQQSLDMRKLGELEADLKEKDSMVESLTETIGILRKELENEKLKAAENMDSFEKLSMENENLKEKIAHYRAQRFSPAPSGL
notes: SAS-6, C. elegans, Uniprot ID O62479, N terminus plus coiled coil, residues 1-414; A His6 form from pET30a was used for electron microscopy only; source: E. coli BL21 gold (DE3), purified (glutathione sepharose, eluted by prescission protease, dialysis); not shown: GST, N-terminal, cleaved
binding result [10]: binds

B5: C. elegans SAS-6 N terminus plus coiled coil fragment with I154E (ceN-CC[I154E]) (domain or fragment, UniProt O62479 1-414, looked up)
chain: B4 chain with I154E
notes: SAS-6, C. elegans, Uniprot ID O62479, residues 1-414, I154 exchanged by glutamate; source: preparation of the mutant not described
stoichiometry N [10]: 2
